This passage reports IC50, relative activity (ratio of IC50 to P85-97A) and factor of increase in affinity results from patent publication US6649166.

Ends that are not written are not given here.

The target in experiment [1] is HLA-DR molecule encoded by the allele HLA-DRB1*0301 (human). Kind of experiment: competition ELISA, nonbiotinylated tracer peptide against its biotinylated form.
In experiment [2] the target is HLA-DR molecule encoded by the allele HLA-DRB1*0101 (human). Description: competition ELISA, purified HLA-DR, biotinylated tracer; minus sign = loss.
Experiment [3] has as its target HLA-DR molecule encoded by the allele HLA-DRB1*0301 (human). The description is as above.
Experiment [4] has as its target HLA-DR molecule encoded by the allele HLA-DRB1*0401 (human). The experiment is described as above.
For experiment [5], the target named is T1, HLA-DR molecule encoded by the allele HLA-DRB1*0701 (human).
T1 chain 1: not shown
T1 chain 2: not shown
The description is as above.

Experiment [6] concerns the target HLA-DR molecule encoded by the allele HLA-DRB1*1101 (human). Described as above.
The target in experiment [7] is T2, HLA-DR molecule encoded by the allele HLA-DRB1*1301 (human).
T2 chain 1: not shown
T2 chain 2: not shown
Described as above.

The target of experiment [8] is T3, HLA-DR molecule encoded by the allele HLA-DRB3*0101 (human).
T3 chain 1: not shown
T3 chain 2: not shown
Described as above.

Experiment [9] deals with T2, HLA-DR molecule encoded by the allele …. Description: competition ELISA, nonbiotinylated tracer peptide against its biotinylated form.
Experiment [10] has the same target. Kind of experiment: competition ELISA, nonbiotinylated peptide against the biotinylated tracer of that DR molecule.
Experiment [11] addresses T3, HLA-DR molecule encoded by the allele …. The description is as above.
The target in experiment [12] is HLA-DR molecule encoded by the allele HLA-DRB1*1501 (human).

B1: MT 2-16 (nonbiotinylated peptide) (peptide)
peptide: AKTIAYDEEARGLE
modifications: not fully specified
Molecule B1 displayed a half-inhibitory concentration (IC50) in [1] of 100 nM. That is a sub-micromolar value.

B2: peptide N89T, analog of the peptide P85-97A (peptide)
peptide: KMYFTLIDTKAYK
modifications: not checked
On to B2, for which the relative activity (ratio of IC50 to P85-97A) in experiment [2] worked out at 1 fold; in [3] it was 7 fold; in experiment [4], 2 fold; in experiment [5], 3 fold; in [6], 2 fold; in experiment [7] it was 1 fold. Also, the relative activity (ratio of IC50 to P85-97A) in [8] worked out at 2 fold.

B3: B1 21-36 (nonbiotinylated peptide) (peptide)
peptide: TERVRLVTRHIYNREE
modifications: not fully specified
Turning to B3, the concentration for half-maximal inhibition (IC50) in experiment [9] was determined as 320 nM; in experiment [10], 275 nM; in experiment [11] it was 35000 nM.

B4: API m1 peptide with glycine 84 substituted by an alanine (peptide)
peptide: YFVAKMYFNLIDT
modifications: not checked
Regarding B4, the factor of increase in affinity in experiment [12] amounted to 5 fold.
